Experimental data published in article doi:10.1101/189324.
Like-named read-outs stand apart in the source and are kept apart here.

Columns and labels:
[1] = target: Insulin (purified, used in vitro)
[2] = target: Insulin (purified, used in vitro); test: BLI
[3] = target: Insulin (purified, used in vitro); test: BLI; remark: listed apart in the source

ThT fluorescence, heat-induced fibrillation of insulin with apo-SCGN (1:2 ratio) [1]: 50%
Kd [2]: 1840 nM
Kd [3]: 1450 nM
B1: Recombinant His-tagged secretagogin (SCGN) (natural protein)
chain: MDNARRKTPARLDAACFWQIWQRFDKEEKGYIRETELDAFFDHLLAKSGTEDTLMEENVQKVKEQLMTSHNVSKEGRILMKELASMFLSEDENFLLFFRLETPLDNSVEFMQIWRKYDADSSGFISAAELCNFLRDLFLHHKKNISEAELEEYTSTMMKIFDKNKDGRLDLNDLARILALQENFLLQFKMDASSTEERKRDFEKIFAHYDVSKTGALEGPEVDGFVKDMMELVQPSISGVDLDKFREILLRHCDVNKDGKIQKSELALCLGLKINP
